Laboratory results from US20220281997A1 (NANJING GENSCRIPT BIOTECH, published 2022).

Key:
[1] = molecular target: T1, His-tag camel-derived nanobody AS718 VHH-His (camel-derived); test: indirect ELISA, AS718 VHH-His coated, hybridoma supernatant
T1 construct: Immunogen; recombinantly expressed with a C-terminal His tag; also called immunogen AS718; immunogen AS718 VHH-His; not shown: C-terminal His tag
Experimental: The rabbit spleen was extracted and homogenized to produce a single-cell suspension, and a single-cell suspension of myeloma cells was prepared at the same time. 1.0×10⁸ splenocytes were fused with 1.2×10⁵ myeloma cells by electrofusion; the fused cells were resuspended in 100 ml of DMEM/10% FBS culture medium containing hybridoma selective agents, thymidine, hypoxanthine and aminopterin, and transferred to a 150×96-well plate in a volume of 100 μl with a pipette; and the plate was incubated at 37° C. in 6% CO₂. After 9 days of incubation, the indirect ELISA was used to evaluate the binding ability of the antibody in the supernatant to VHH-His, indicating the presence of the antibody to VHH-His.
The ELISA plate was coated with 100 μl/well of 0.5 μg/ml VHH-His or His protein in PBS at 4° C. overnight; the plate was washed with PBS-T (0.05% Tween20) and blocked with 200 μl/well of PBST containing 1% BSA at 37° C. for 0.5 hours; the blocking solution was aspirated and discarded, and 100 μl of hybridoma cell culture supernatant was added to each well and then incubated at room temperature for 1 hour; after the incubation, the supernatant was discarded, and the plate was washed three times with PBST and incubated with 100 μl/well of goat anti-rabbit IgG conjugated with horseradish peroxidase (GenScript Goat Anti-Rabbit IgG Antibody (H&L) [HRP], pAb; CAT #: A00098) at 37° C. for 0.5 hours; the plate was washed five times with PBST, and then a TMB color developing solution was added; and the plate was incubated in the dark at room temperature for 15 minutes. The reaction was stopped by adding 50 μl of 1 M HCl stop solution. The plate was read at 450 nm using a microplate reader. In FIG. 3, by the mode of indirect ELISA, immunogen AS718 VHH-His was used to coat the ELISA detection plate, and the titers of the supernatant stock solutions of 15 parent clones were detected by OD450 reading, and the cross-reactions thereof with the His-tag protein were detected at the same time to exclude non-specific combinations. In the experiment, the positive serum was used as a positive control for immunogen AS718 VHH-His, and the Anti-His antibody was used as a positive control for detection target His-tag protein in the reverse screening. The detection value greater than 0.5 was determined to be positive, and the detection value less than 0.2 was determined to be negative.

AS988 VHH = molecular target: T2, AS988 VHH (camel-derived); test: indirect ELISA, VHH coated
T2 construct: One of the 10 different camel-derived nanobodies; not shown: His tag (VHH-His)
Experimental: (§1) The ELISA plate was coated with 10 different VHHs at […] in 100 μl/well of PBS at 4° C. overnight, respectively; the plate was washed with PBS-T (0.05% Tween) and blocked with 200 μl/well of PBST containing 1% BSA at 37° C. for 0.5 hours; the blocking solution was aspirated and discarded, and 100 μl of 1 μg/ml purified antibodies were added to the first well, diluted in a 3-fold gradient for a total of 11 test concentration gradients and incubated at room temperature for 1 hour; the plate was washed three times with PBST and incubated with 100 μl/well of goat anti-rabbit IgG conjugated with horseradish peroxidase (GenScript Goat Anti-Rabbit IgG Antibody (H&L) [HRP], pAb; CAT #: A00098) at 37° C. for 0.5 hours; the plate was washed five times with PBST, and then a TMB color developing solution was added; and the plate was incubated in the dark at room temperature for 15 minutes. The reaction was stopped by adding 50 μl of 1 M HCl stop solution. The plate was read at 450 nm using a microplate reader; and the binding abilities of 15 clones to VHH-His were obtained (as shown in FIGS. 6a and 6b). […] On one hand, the affinities of the antibody of the same camel-derived nanobody to different camel-derived nanobodies were different; on the other hand, the affinities of different antibodies of camel-derived nanobodies to the same camel-derived nanobody were different. However, on the whole, all the 15 purified antibodies can be recognized with 10 different camel-derived nanobodies.

AS154 VHH [2] = molecular target: T3, AS154 VHH (camel-derived); test: indirect ELISA, VHH coated
T3 construct: One of the 10 different camel-derived nanobodies; not shown: His tag (VHH-His)
Experimental: as §1

AS673 VHH = molecular target: T4, AS673 VHH (camel-derived); test: indirect ELISA, VHH coated
T4 construct: One of the 10 different camel-derived nanobodies; not shown: His tag (VHH-His)
Experimental: as §1

AS587 VHH = molecular target: T5, AS587 VHH (camel-derived); test: indirect ELISA, VHH coated
T5 construct: One of the 10 different camel-derived nanobodies; not shown: His tag (VHH-His)
Experimental: as §1

AS656 VHH = molecular target: T6, AS656 VHH (camel-derived); test: indirect ELISA, VHH coated
T6 construct: One of the 10 different camel-derived nanobodies; not shown: His tag (VHH-His)
Experimental: as §1

AS519 VHH = molecular target: T7, AS519 VHH (camel-derived); test: indirect ELISA, VHH coated
T7 construct: One of the 10 different camel-derived nanobodies; not shown: His tag (VHH-His)
Experimental: as §1

AS588 VHH = molecular target: T8, AS588 VHH (camel-derived); test: indirect ELISA, VHH coated
T8 construct: One of the 10 different camel-derived nanobodies; not shown: His tag (VHH-His)
Experimental: as §1

AS325 VHH = molecular target: T9, AS325 VHH (camel-derived); test: indirect ELISA, VHH coated
T9 construct: One of the 10 different camel-derived nanobodies; not shown: His tag (VHH-His)
Experimental: as §1

AS675 VHH [3] = molecular target: T10, AS675 VHH (camel-derived); test: indirect ELISA, VHH coated
T10 construct: One of the 10 different camel-derived nanobodies; not shown: His tag (VHH-His)
Experimental: as §1

AS200 VHH [4] = molecular target: T11, AS200 VHH (camel-derived); test: indirect ELISA, VHH coated
T11 construct: One of the 10 different camel-derived nanobodies; not shown: His tag (VHH-His)
Experimental: as §1

AS154 VHH [5] = molecular target: T3, AS154 VHH; test: SPR, Biacore 8K; VHH-His captured on anti-His antibody chip
Excerpt: (§2) The camel-derived nanobody with the lowest affinity to the cloned antibody was AS587, and the affinity reached 2.2 nmol.

AS675 VHH [6] = molecular target: T10, AS675 VHH; test: as above
Excerpt: as §2

AS200 VHH [7] = molecular target: T11, AS200 VHH; test: as above
Excerpt: as §2

Measured: binding result

T6 sequence (VHH, as listed by the source): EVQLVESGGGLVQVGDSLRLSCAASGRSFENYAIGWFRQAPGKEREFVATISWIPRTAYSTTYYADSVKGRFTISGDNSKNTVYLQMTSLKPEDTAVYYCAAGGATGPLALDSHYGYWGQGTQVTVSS
T11 sequence (VHH, as listed by the source): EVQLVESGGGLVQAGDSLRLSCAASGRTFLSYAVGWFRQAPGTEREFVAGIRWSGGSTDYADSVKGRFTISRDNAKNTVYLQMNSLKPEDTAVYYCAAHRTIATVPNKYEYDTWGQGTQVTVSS
T9 sequence (VHH, as listed by the source): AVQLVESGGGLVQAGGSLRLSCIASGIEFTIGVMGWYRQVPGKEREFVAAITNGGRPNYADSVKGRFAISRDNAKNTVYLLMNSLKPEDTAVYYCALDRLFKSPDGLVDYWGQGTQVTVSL
T4 sequence (VHH, as listed by the source): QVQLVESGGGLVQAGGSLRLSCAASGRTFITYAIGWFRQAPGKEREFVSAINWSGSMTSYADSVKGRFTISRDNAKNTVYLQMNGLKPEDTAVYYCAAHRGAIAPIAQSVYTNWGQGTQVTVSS
T5 sequence (VHH, as listed by the source): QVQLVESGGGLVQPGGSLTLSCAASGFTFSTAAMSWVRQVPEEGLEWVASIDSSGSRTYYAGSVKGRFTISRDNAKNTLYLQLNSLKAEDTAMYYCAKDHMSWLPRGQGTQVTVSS
T1 sequence (VHH, as listed by the source): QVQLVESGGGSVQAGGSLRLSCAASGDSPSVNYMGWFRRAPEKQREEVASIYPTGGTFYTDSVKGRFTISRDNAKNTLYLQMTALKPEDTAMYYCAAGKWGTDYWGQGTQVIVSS
T3 sequence (VHH, as listed by the source): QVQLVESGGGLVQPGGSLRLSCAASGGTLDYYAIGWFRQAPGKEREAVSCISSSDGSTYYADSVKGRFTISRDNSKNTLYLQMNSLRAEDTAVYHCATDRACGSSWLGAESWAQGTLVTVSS
T7 sequence (VHH, as listed by the source): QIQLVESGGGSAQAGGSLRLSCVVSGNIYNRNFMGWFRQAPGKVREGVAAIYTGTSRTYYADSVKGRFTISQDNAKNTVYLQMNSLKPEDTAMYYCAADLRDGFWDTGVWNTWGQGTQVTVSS
T8 sequence (VHH, as listed by the source): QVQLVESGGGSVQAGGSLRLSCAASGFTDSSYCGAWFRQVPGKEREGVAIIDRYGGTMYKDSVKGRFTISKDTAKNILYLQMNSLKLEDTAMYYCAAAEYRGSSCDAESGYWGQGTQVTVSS
T2 sequence (VHH, as listed by the source): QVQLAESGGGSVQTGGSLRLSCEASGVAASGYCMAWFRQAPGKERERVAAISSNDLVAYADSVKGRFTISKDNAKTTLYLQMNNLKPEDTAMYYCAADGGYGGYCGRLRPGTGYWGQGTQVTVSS
T10 sequence (VHH, as listed by the source): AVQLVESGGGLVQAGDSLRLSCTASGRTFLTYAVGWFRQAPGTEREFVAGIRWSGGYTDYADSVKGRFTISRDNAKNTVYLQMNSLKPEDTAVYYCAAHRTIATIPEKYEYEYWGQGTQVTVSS

B1: R166.E3 (antibody, V domains shown)
VH: QSLEESGGRLVTPGTPLTLTCTVSGIDLSSCVLIWVRQAPEKGLEWIGFIYGSGNAYYANWAKGRFTISKTSSTTVDLKITSPTTEDTATYFCARSQEDDSFGYGFNLWGQGTLVTVSS
VL: AYDMTQTPASVEVAVGGTVTINCQASQSIGTYLSWYQQKPGQPPKLLIYRASTLTSGVSSRFKGSGSGTQFTLTISGVECADAATYYCQEGYSDINVNNIFGGGTEVVVKG
notes: Rabbit monoclonal; also called clone R166.E3
not listed: AS154 VHH [5] | AS675 VHH [6] | AS200 VHH [7]
binds: all other assays above

B2: R166.H10 (antibody, V domains shown)
VH: QSLEESGGRLVTPGTPLTLTCTASGFSLSSYWMSWVRQAPGKGLEYIGIISGSGSTYYATWAKGRFTISKTSSTTVDLKITSPTTEDTATYFCARGNPHYSFGFNIWGPGTLVTVSL
VL: DIVMTQTPASVSEPVGGTVTINCQASESIYSWLSWYQQKPGQPPKLLIYSASYLASGVPSQFRGSGSGTEYTLTISDLECADAATYYCQYNYDSGDGITNGFGGGTEVVVKG
notes: Rabbit monoclonal; also called clone R166.H10
not listed: AS154 VHH [5] | AS675 VHH [6] | AS200 VHH [7]
binds: all other assays above

B3: R166.C5 (antibody, V domains shown)
VH: QSVEESGGRLVTPGTPLTLTCTVSGFSLRNFAMSWVRQAPGKGLEWIGIIYSGGTRDYATWAKGRFTISKTSTTVDLKMTSPTTEDTATYFCARDRSPDYSAAFLLWGQGTLVTVSS
VL: IVMTQTPSSKSVPVGDTVTINCQASESVYSNNHLAWFQQKPGQPPKLLIYSASTLESGVPSRFKGSGSGTQFTLTISGVQCDDAATYYCAGYKSSDTDGTSFGGGTEVVVKG
notes: Rabbit monoclonal; also called clone R166.C5; antibody clone R166.C5
binds: AS154 VHH [5] | AS675 VHH [6] | AS200 VHH [7]

B4: R166.A5 (antibody, V domains shown)
VH: QSVEESGGRLVTPGTPLTLTCTVSGFSLNNYTVIWVRQAPGKGLEWIGIIFGSGGTYYATWAEGRFTISRTSTTVDLKMTSPTTEDTATYFCARGYFGNTFWAMDPWGPGTLVTVSS
VL: NIVMTQTPASVSGAVGGTVTIKCQASQSISTYLSWYQQKPGQPPKLLIYQASELAYGVSSRFKGSGSGTEFTLTISGVECADAATYYCQQGYSDINVDNFFGGGTEVVVKG
notes: Rabbit monoclonal; also called clone R166.A5; antibody clone R166.A5
not listed: AS154 VHH [5] | AS675 VHH [6] | AS200 VHH [7]
binds: all other assays above

B5: R166.H9 (antibody, V domains shown)
VH: QSLEESGGRLVTPGTPLTLTCTASGFSLNNYNMIWVRQAPGEGLEWIGMIGDGDDAAWYASWAKGRFTISKTSTTVDLEVTSLTTEDTAIYFCARYLSFTRLDLWGQGTLVTVSS
VL: AVLTQTPSPVSAAVGGTVTINCQSSQSVYHNNWLAWYQQKPGQPPKLLIYGAATLASGVPSRFKGSGSGTQFTFTITDVQCDDVGTYYCAGVYNDDSENAFGGGTEVVVKG
notes: Rabbit monoclonal; also called clone R166.H9
not listed: AS154 VHH [5] | AS675 VHH [6] | AS200 VHH [7]
binds: all other assays above

B6: R166.E5 (antibody, V domains shown)
VH: QSLEESGGRLVTPGTPLTLTCTASGFSLSGYYMIWVRQAPGKGLEYIGIVTSSGSTHYASWANGRFAISKTSSTTVDLKMPSLTTEDTATYFCAREGGWAFDLWGQGTLVTVSS
VL: QVLTQTPFSVSTAVGGTVTINCQSSESVANSNWLSWYQQKPGQPPKLLIYWASKLASGVPSRFSGSGSGTQFTLTISGVQCADAATYYCQGGYTSDRRAFGGGTEVVVKG
notes: Rabbit monoclonal; also called clone R166.E5
not listed: AS154 VHH [5] | AS675 VHH [6] | AS200 VHH [7]
binds: all other assays above
